System: Escherichia coli TOP10
Test: shrunken log2 fold change of peptide-encoding DNA abundance (4.5 h post-induction vs induction); higher = less antimicrobial activity (less host growth inhibition)
Conditions: time post-induction: 4.5 h; library: site-saturation at positions 5, 18, 19, 20
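Also: peptides expressed intracellularly from a pBAD plasmid library in pooled LB shake-flask culture, induced with 0.3% L-arabinose, DNA abundance read by NGS, three biological replicates, DESeq2 with apeglm shrinkage.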

Sequence	shrunken log2 fold change
RRIRARPPRLPRPRPRPEFHPRP	0.847
RRIRLRPPRLPRPRPRPMKYPRP	-0.236
RRIRFRPPRLPRPRPRPIMQPRP	-0.497
RRIRDRPPRLPRPRPRPWTEPRP	0.0384
RRIRFRPPRLPRPRPRPHNTPRP	-0.796
RRIRPRPPRLPRPRPRPVVKPRP	-0.181
RRIRCRPPRLPRPRPRPEMAPRP	0.532
RRIRLRPPRLPRPRPRPLDIPRP	-0.15
RRIRNRPPRLPRPRPRPGTCPRP	-0.0314
RRIRQRPPRLPRPRPRPSEMPRP	0.0648
RRIRERPPRLPRPRPRPDNQPRP	-0.459
RRIRNRPPRLPRPRPRPCSGPRP	-0.242
RRIRIRPPRLPRPRPRPKMAPRP	-0.179
RRIRARPPRLPRPRPRPIRCPRP	0.188
RRIRWRPPRLPRPRPRPYYMPRP	-0.258
RRIRIRPPRLPRPRPRPIQQPRP	-0.0134
RRIRMRPPRLPRPRPRPSMSPRP	-0.024
RRIRCRPPRLPRPRPRPQPGPRP	0.437
RRIRNRPPRLPRPRPRPHFCPRP	-0.144
RRIRPRPPRLPRPRPRPTFPPRP	0.025
RRIRRRPPRLPRPRPRPKAYPRP	0.224
RRIRIRPPRLPRPRPRPRIRPRP	-0.204
RRIRVRPPRLPRPRPRPWEMPRP	-0.00133
RRIRSRPPRLPRPRPRPGEMPRP	0.336
RRIRERPPRLPRPRPRPRGHPRP	0.0666

Sequence	shrunken log2 fold change
RRIRYRPPRLPRPRPRPINFPRP	-0.299
RRIRNRPPRLPRPRPRPIFCPRP	-0.0368
RRIRSRPPRLPRPRPRPWDNPRP	0.0157
RRIRKRPPRLPRPRPRPQNKPRP	0.0275
RRIRKRPPRLPRPRPRPVYIPRP	-0.564
RRIRIRPPRLPRPRPRPVFNPRP	-0.602
RRIRIRPPRLPRPRPRPFVVPRP	-0.235
RRIRHRPPRLPRPRPRPLNCPRP	-0.134
RRIRMRPPRLPRPRPRPHMIPRP	-0.159
RRIRVRPPRLPRPRPRPQPSPRP	0.00981
RRIRHRPPRLPRPRPRPKVVPRP	-0.00398
RRIRFRPPRLPRPRPRPHQLPRP	-0.374
RRIRLRPPRLPRPRPRPDYIPRP	-0.161
RRIRLRPPRLPRPRPRPSKNPRP	-0.296
RRIRFRPPRLPRPRPRPSGFPRP	-0.207
RRIRDRPPRLPRPRPRPFCFPRP	0.265
RRIRHRPPRLPRPRPRPMLAPRP	-0.144
RRIRFRPPRLPRPRPRPVWVPRP	0.0313
RRIRSRPPRLPRPRPRPFRTPRP	-0.318
RRIRMRPPRLPRPRPRPVGNPRP	0.0176
RRIRYRPPRLPRPRPRPMAFPRP	-0.557
RRIRVRPPRLPRPRPRPRYEPRP	-0.273
RRIRKRPPRLPRPRPRPHTYPRP	-0.101
RRIRHRPPRLPRPRPRPDSCPRP	-0.164
RRIRTRPPRLPRPRPRPCSCPRP	-0.0701

Sequence	shrunken log2 fold change
RRIRFRPPRLPRPRPRPDWKPRP	0.0379
RRIRHRPPRLPRPRPRPITIPRP	-0.124
RRIRDRPPRLPRPRPRPPDLPRP	0.201
RRIRQRPPRLPRPRPRPHKEPRP	0.114
RRIRWRPPRLPRPRPRPYGLPRP	-0.23
RRIRFRPPRLPRPRPRPIRHPRP	-0.355
RRIRWRPPRLPRPRPRPKEYPRP	0.02
RRIRNRPPRLPRPRPRPVSPPRP	-0.087
RRIRERPPRLPRPRPRPQNPPRP	-0.213
RRIRKRPPRLPRPRPRPADAPRP	0.194
RRIRGRPPRLPRPRPRPHMKPRP	0.103
RRIRRRPPRLPRPRPRPPNMPRP	0.402
RRIRIRPPRLPRPRPRPAFLPRP	-0.279
RRIRPRPPRLPRPRPRPSWEPRP	0.245
RRIRNRPPRLPRPRPRPGHWPRP	0.291
RRIRQRPPRLPRPRPRPICTPRP	-0.0531
RRIRLRPPRLPRPRPRPEIAPRP	0.167
RRIRARPPRLPRPRPRPRPKPRP	0.916
RRIRARPPRLPRPRPRPYTYPRP	-0.458
RRIRGRPPRLPRPRPRPVKAPRP	0.659
RRIRDRPPRLPRPRPRPDAWPRP	0.816
RRIRDRPPRLPRPRPRPQCQPRP	-0.00822
RRIRDRPPRLPRPRPRPYLWPRP	-0.0398
RRIRYRPPRLPRPRPRPDGVPRP	-0.0741
RRIRTRPPRLPRPRPRPGEGPRP	0.177

Sequence	shrunken log2 fold change
RRIRIRPPRLPRPRPRPERIPRP	0.0552
RRIRLRPPRLPRPRPRPIANPRP	-0.00904
RRIRQRPPRLPRPRPRPVCAPRP	0.118
RRIRARPPRLPRPRPRPLNIPRP	0.0473
RRIRERPPRLPRPRPRPKRWPRP	0.35
RRIRQRPPRLPRPRPRPSGEPRP	0.0168
RRIRYRPPRLPRPRPRPMLVPRP	-0.176
RRIRPRPPRLPRPRPRPAFNPRP	-0.0727
RRIRHRPPRLPRPRPRPDISPRP	-0.278
RRIRWRPPRLPRPRPRPVGDPRP	0.33
RRIRHRPPRLPRPRPRPMFMPRP	-0.256
RRIRHRPPRLPRPRPRPKSQPRP	-0.149
RRIRARPPRLPRPRPRPYDIPRP	0.00126
RRIRSRPPRLPRPRPRPRAGPRP	1.46
RRIRPRPPRLPRPRPRPTGFPRP	0.0273
RRIRQRPPRLPRPRPRPWQWPRP	-0.133
RRIRRRPPRLPRPRPRPEFDPRP	0.486
RRIRPRPPRLPRPRPRPFIVPRP	-0.257
RRIRIRPPRLPRPRPRPSVAPRP	0.011
RRIRIRPPRLPRPRPRPLFPPRP	-0.42
RRIRRRPPRLPRPRPRPFNRPRP	-0.557
RRIRQRPPRLPRPRPRPSLWPRP	0.337
RRIRKRPPRLPRPRPRPCWPPRP	0.0513
RRIRERPPRLPRPRPRPTMWPRP	-0.421
RRIRMRPPRLPRPRPRPIRMPRP	0.213

Sequence	shrunken log2 fold change
RRIRKRPPRLPRPRPRPHGLPRP	0.0425
RRIRSRPPRLPRPRPRPCSIPRP	-0.153
RRIRARPPRLPRPRPRPYNSPRP	-1.21
RRIRARPPRLPRPRPRPGVHPRP	0.243
RRIRFRPPRLPRPRPRPQSRPRP	0.0257
RRIRKRPPRLPRPRPRPVRIPRP	0.494
RRIRVRPPRLPRPRPRPAINPRP	-0.259
RRIRLRPPRLPRPRPRPKMFPRP	0.0156
RRIRIRPPRLPRPRPRPSEMPRP	-0.553
RRIRIRPPRLPRPRPRPVYWPRP	-0.208
RRIRIRPPRLPRPRPRPLGRPRP	0.39
RRIRIRPPRLPRPRPRPCFHPRP	-0.532
RRIRSRPPRLPRPRPRPASTPRP	-0.16
RRIRHRPPRLPRPRPRPQSAPRP	-0.116
RRIRIRPPRLPRPRPRPTWKPRP	-0.0541
RRIRARPPRLPRPRPRPNYEPRP	-0.22
RRIRLRPPRLPRPRPRPNNNPRP	-0.673
RRIRGRPPRLPRPRPRPKKYPRP	0.119
RRIRDRPPRLPRPRPRPFVIPRP	0.129
RRIRKRPPRLPRPRPRPPFRPRP	0.566
RRIRIRPPRLPRPRPRPMDQPRP	0.0178
RRIRNRPPRLPRPRPRPIMGPRP	-0.0169
RRIRSRPPRLPRPRPRPAIKPRP	-0.352
RRIRKRPPRLPRPRPRPSHIPRP	0.156
RRIRCRPPRLPRPRPRPWLNPRP	-0.752

Sequence	shrunken log2 fold change
RRIRHRPPRLPRPRPRPQQRPRP	0.403
RRIRDRPPRLPRPRPRPCDMPRP	-0.0013
RRIRYRPPRLPRPRPRPHKSPRP	-0.526
RRIRLRPPRLPRPRPRPPPSPRP	1.28
RRIRKRPPRLPRPRPRPVAFPRP	0.238
RRIRGRPPRLPRPRPRPPQDPRP	0.781
RRIRIRPPRLPRPRPRPTPPPRP	0.464
RRIRCRPPRLPRPRPRPALSPRP	0.282
RRIRPRPPRLPRPRPRPCDFPRP	-0.179
RRIRRRPPRLPRPRPRPSFPPRP	0.0188
RRIRYRPPRLPRPRPRPQEKPRP	-0.0798
RRIRERPPRLPRPRPRPIIAPRP	-0.106
RRIRNRPPRLPRPRPRPLWMPRP	-0.587
RRIRRRPPRLPRPRPRPFILPRP	-0.293
RRIRHRPPRLPRPRPRPWILPRP	-0.223
RRIRNRPPRLPRPRPRPGKNPRP	0.0906
RRIRDRPPRLPRPRPRPGREPRP	0.603
RRIRQRPPRLPRPRPRPRFGPRP	0.198
RRIRLRPPRLPRPRPRPPRQPRP	0.688
RRIRRRPPRLPRPRPRPPIQPRP	0.16
RRIRIRPPRLPRPRPRPLSFPRP	-0.687
RRIRRRPPRLPRPRPRPQCAPRP	0.647
RRIRQRPPRLPRPRPRPFQNPRP	-0.179
RRIRHRPPRLPRPRPRPECTPRP	0.154
RRIRSRPPRLPRPRPRPHASPRP	0.188

From the supplement of paper PMC9112550, “Optimization of the antimicrobial peptide Bac7 by deep mutational scanning” (BMC Biology, 2022)
